Test: yeast display, Sf9 membrane polyspecificity reagent, FACS + sequencing; frameworks hold sequencing errors
Outline: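 Galactose induction of a Saccharomyces cerevisiae BJ5465 synthetic nanobody display library ran 36–48 hours. The cells were then stained for 1 hour at 4 °C with 10% biotinylated, detergent-solubilized Sf9 membrane reagent, pulled down on streptavidin microbeads and FACS-sorted into low and high (top ~1%) gates on expression and reagent-binding fluorescence. Labels for polyreactivity follow the gate of origin.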

Sequence | polyreactivity (PSR sort gate)
PVQLVESGGGVVQAGGSLRVSCAASGSIFYVYAMGWYRQAGGKEWELVAAINPSGGSTFYADSVKGRFTISRDNAKTTDYLQMNSLTPEHTAVYYCAAERYRYRSTDTMGYWGQGTQVTVSS | low polyreactivity
QVQIVESGGGLVQAGGSLRLSCAASGFILNYYGMGWYRQAPGKERELVATISRGASTNYADSVKGRFTISRDNAKNTVYLQMISLKPEETEVYSCAKDYGDWGQGTQVTVSS | low polyreactivity
QVQLVESGGGLVQAGGSLRLSCAASGFTFQNYAMGWYRQAPGKERELVAAIDSRGGRTYYADSVKGRFTISRDNAKNTVYLQMNSLNPEDTAVYYCAGAENKRFGSVGYYYWGQGTQVTVSS | low polyreactivity
QVQLVESGGGLVQAGGSLRLSCAASGRIFVNNAMGWYRQAPGKERELVATITSGGSTYYADSVKGRFTISRDNAKNTVYLQMNSLKPEDSAVYYCAARRWYVHYFAYGYWGQGTQVTVSS | low polyreactivity
QVQLVESGGGLVQAGGSLRLSCAASGFIFDYYTMGWYRQAPGKERELVASIRSSGSSTYYADSVKGRFTISRDNAKNTVYLQMNSLKPEDTAVYYCARRYVVNRDWGDDYWGQGTQVTVSS | high polyreactivity
QVQLVESGGGLVQAGGSLRLSCAASGFTLDPYAMGWYRQAPGKERELVAAIRLSGSSTYYADSVKGRFTISRDNAKNTVYLQMNSLKPEDTAVYYCAADGISHWLYRYDYWGQGTQVTVSS | low polyreactivity
QVQIVESGGGLVQAGGSLRLTCAASGSIFDVYTMGWYRQAPGKERELVAAISYSGGRTNYADSVKGRFTISRDNAKNTVYLQIYSLKPEDTAVYYCATTDGRTAWGVKDYYAKYNYWGQGTQVTVSS | low polyreactivity
QVQLVESGGGLVQGGGSLRLSCAASGFIFSRYAMGWYRPAPGKERELVAAISRTGSTNYADSVKGRFTISRDNAKNTVYLQMNSLNPEDTAVYYCNARYITFNGYGYGYWEQGTQVTVSS | high polyreactivity
QVQLVESGGGLVQAGGSLRLSCAASGSIFNINAMGWYRQAPGKERELVAAISKRGGSTYYADSVKGRFTISRDNAKNTVYLQLNSLKPEDTAVYYCAADLTGVDYDYWGQGTQVTVSS | high polyreactivity
QVKLVESGGGLVQAGGSLRLSCAASGITFYINAMGWYRQAPGKERELVAVIDSRGSSTFYADSVKGRFTISRDNAKNTVYLQMNSLKPEDTAVYYCAVEGYPGRYRDPGDLYYYWGQGTQVTLSS | low polyreactivity
QVQLVESGGGLVQAGGSLRLSCAASGSIFRFYAMGWYRQAPGKERELVAGITWSGASTYYADSVKGRFTISRDNAKNTVYFQMNSLKPEDSAVYYCAAKSLIVRYDSWGQGTQVSVSS | high polyreactivity
QVQLVESGGGLVQAGGSLRLSCAASGRTFGINAMGWYRQAPGKDRELVAAIRTGGSTYYADSVKGRFTISRDNAMNTVYLQMNSLKPEDTAVYYCAAKAYRRYTIPPYGYWGQGTQVTVSS | high polyreactivity
QVQLVETGGGLVQAGGSLRLSCAASGRTFKGYAMGWYRQSPGKERELVAGISRGAGRTYYADSVKGRFTISRDNAKNTVYLQMNSLKPEDTEVYYCAAVPSYHSTSPFYYWGQGTQVTVSS | high polyreactivity
QLQLVESGGGLVQAGGSLRLSCAPSGRTFVGNAMGWYRQAPGKERELVAAITLSDGSTYYADSVKGRFTISRDNAKNTVYLQMNSLKPEDTAVYYCATQPLYWYDVVVNIRGPSGYWGQGTQVTVSS | low polyreactivity
LVQLVESGGGLVQAGGSLRLSCAASGIIFRFYDMGWYRQAPGKERELVAAISWDGTSTYYADSVKGRFTISRDNAKNTVSLQMNSQKPEDTAVYYCAADWVGSPWWYLWYGYWGQGTQVTVSS | high polyreactivity
QVQLVESGGGLVQAGGSLRLSCASSGSIFVLNAMGWYRQAPVKESELVAGITYSGGSTYYADSVKGRFTISRDNAKNTVYLQMNSLKPEDTAVYYWSAPVRRYPYPGRFYYWGQGTQVTVSS | low polyreactivity
QVQLVESCGGLVQAGGSLRLSCAASGSIFYGNVMGWYRQAPGKERELVAAISSSGGSTYYADSVKGRFTISRDNEKNTVYLQMNRLKPEDSAVYYCAAYWWSRVVRGSRYDYWGQGTHVTVSS | low polyreactivity
QVQHVESGGGLVQAGGSLRLSCAASMGWYRQAPGKERELVAAINSGGSTNYADSVKGRFTISRDNAKNTVYLQMNSLKPEDTAVYYCAKTFSNLPEYDYWGQGTQVTVSS | low polyreactivity
QVQLVESGGGLVQAGGSLRLSCAASGRIFTQYAMGWYRQAPGKERELVAAISYGGGTTHYADSVKGRFTISRDNAKNTVYLQMNSLKPEDTAVYYCAADGGRQVYTQLYDYWGQGTQVTVSS | low polyreactivity
HVQLVESGGGLVQEGGSLRLSCAASGSILALYAMGWDRQAPGKERELVAAISSGDSTSYADSVKGRFTISRDNAKNTVYLQMNSLKPEDTAVYYCAADRPIYPYPGKGFRYDYWGQGTQVTVSS | low polyreactivity
QVQLVESGGGLVKAGVSLRLSCAASGSIFVGYAMGWYRQAPGKERELVAAIRSGGSTKYADSVKGRFTISRDNAKNTVYLQMNSLKPEDTAVYYCNVEVHPYYWVDNFHRYPVLHNYWGQGTQVTVSS | low polyreactivity
QVQLVESGGGLVQAGGSLRLSCAASGSISYRYAMGWYRQAPGKERELVAAISYRGGTTYYADSVKGRFTISRDNAKNTVYLQMNSLKPEDTAVYYCADDFFGSSYPFYYWGQGTQVTVSS | high polyreactivity

Sequence | polyreactivity (PSR sort gate)
QVQLVESGGGLVQAGGSLRLSCAASGRTFKYKAMGWYRQAPGKERELVDAISSDDSTNYADSVKGRFTISRDKAQNTVYLQMNSLKPEDTAVYYCAARYGYSKWPDRVQAYKHDYWGQGTQVTVSS | low polyreactivity
QVQLVESRGGLVQAGGSLRLSCAASGRIFAWNAMGWSRQAPGKERELVAVITSGGNTNYADSVTGRFTISRDNAKNTVYLQLNSLKPEDTAVYYCPKIGYAKRTRFWSHYDYWGQGTQVTVSS | high polyreactivity
QVQHVESGGGLVQAGGSLRLSCAASGSTFAFYAMGWYRQAPGKERELVAAITWRVGSTYYADSVKGRFTISRDNAKNTVYLQMNSLKPEDTAVYYCAVDIPFYDSDYCGQGTQVTVSS | low polyreactivity
QVQLVESGGGLVQAGGSLRLSCAASGLTFGSYAMGWYRQAPGKERELVAAISSRGGTTYYADSVKGRFTISRDNAKNTVYLQMNSLKPEDTAVYYCAARSRRYSYDNLGHWGQGTQVTVSS | high polyreactivity
QVQLVESGGGLVQAGGSLRLSCAASGRTLYRYAMGWYRQAPGKERELVAAIRSGGRTNYSDSVKGRFTISRDNAKNTVYLQMNSLKPEDTAVYYCAARTLRYPSTYDYWGQGTQVTVSS | high polyreactivity
QVQLVESGGGLVQAGGSLRLSSASSGRTLVPYAMGWYRQAPGKERELVAAISSGGYTNYADSVKGRFTISRDNAKNTVYLQMNSLKPEDTAVYYCAADYPVRSYDYWGQGTQVTVSS | low polyreactivity
QVQLVESGGGLVQAGGSLRLSCAASGLTIQRNDMGWYRQAPGKEREFVATITSNAGSTYYADSVKGRFTISRDNAKNPVYFQMNSLKPEDTAVYYWARERWWGGSDYWGQGTQVTVSS | high polyreactivity
QVQLVESGGGLVQAGGSLRLSCAASGLIFTYNAMGWYRQAPGKERELVASISWGGGSTYYADSVKGRFTISRDNAKHTVYLQMHSLKPEDTAVYYCNAKFKTVHTYGDTIFDRYDYWGQGTQVTVSS | low polyreactivity
QVQLVESGGGLVQAGGSLRLSCAASGFIFRAYAMGWYRQAPGKERELVAAISGSGGSTYYADTVKGRFTISRDNAMNTVDLQMNSLKPEDTAVYYCNKYVGYYAYNYNYWGQGTQVTVSS | high polyreactivity
QVQLVESGGGLVQAGGSLRLSCAASGSISYYAMGWYRQAPGKEMELVAAISQSGGSTYYADSVKGRFTISRDNAKNTVYLQMNSLKPEDTAVYYCAAKSPYSSYYPYGYWGQGTQVTVSS | high polyreactivity
QVQLVESGGGLVQAGGSLRLSCAASGGTFSPNTMGWYRQAPGKERELVAAISSSGSTSYADSVKGRFTISRDNAKNTVYLQMNSLKPEDTAVYYCNADDTISYYASGFDNYHYWGQGTQVTVSS | low polyreactivity
QVQLVESGGGLVQAGGSLRLSCAASGSIFWGYAMGWYRQAPGKERELVAAITRGDTTNYADSVKGRFTISRDNAKNTVYLQMNSLKPEDTAVYYCAATPDPPHTYEYWGQGTQVTVSS | low polyreactivity
QVQLVESGGGLVQAGGSLRLSCASSGRIFRYYDMGWYRQAPGKERELVASITSGGSTNYADSVKGRFTISRDNAKNTVYLQMNSLKPEDTAVYYCAARWGYARANGYDYWGQGTQVTVSS | high polyreactivity
QVQLVESGGCLVQAGGSLRLSCAASGRMFWSNARGWYRQARGYERELVAAMRNTGSTYYADSVKGRFTISRDNAKNTVYLQMNSLKPEETAVYYCATKPYPYYLYYYWGQGTQVTVSS | high polyreactivity
QVQLVESGGGLVQAGGSLRISCAASGRIFWTYAMGSYRQAPGKERELVAAITWRGGSTSYADSVKGRFTISRDNAKNTVYLQMNSLKPEDTAVYYCAADTYSYLRGTYEYDYWGQGTQVTVSS | high polyreactivity
QDQLVESGGGLVQAGGSLRLSCAASGSTFYTYAMGWYRQEPGKERELVAAISYRGGSSYYAVSVKGRFTISRDNAKYTVYLQMNSLKPEDTAVYYCAAKVSRAGDFWGQGTQVTVSS | low polyreactivity
QVQLVESGGGLVQAGGSLRLSCAASGRILTTYAMGWYRQAPGKERELVAAITTIGGRTYYADSVKGRFTISRDNAKNTVYLQMNSLKPEDTAVYYCAADVYYEYDYWGQGTQVTVSS | low polyreactivity
QVQLVESGGGLVQAGGSLRLSCAASGYIFGYYVMGWYRQAPGKERELVAAISGRGGRTYYADSVKGRFTISRDNAKNTVYLQMNSLKPEDTAVYYCAAADLPGTMYYWGQGTQVTVSS | high polyreactivity
QVQLVESGGGLVQAGGSLRLSCAASGIIFGTYDMGWNRQAPGKERELVAANTSGTSTNYADSVKGRFTISRDNAMNTVYLQMNSLKPEDTAVYYCAADVYLYYPYFGHRRYNYWGQGTQVTVSS | high polyreactivity
QVQLVESGGGLVQAGGSLRLSCAASGFTFSLYDMGWYRQAPGKERELVADINGSGGSTYYSDSVKGRFTISRDNAKYTVYFQMNSLKPEDTAVYYCAAGPPSRWWYFVDYGYWGQGTQVTVSS | high polyreactivity
QVQLVESGGGLVQAGGSLRLSCAASGRTFFYYSMGWYIQAPGKEREFVSGISKSGSSTYYADSVKGRFTISRDNPKNTVYLQLISLKPEDTADSYCAAVSKRGAGGRRTEYWGQGTQVTVSA | high polyreactivity
